Measured values published in paper PMC3017119, “Structural Basis for the Recognition of Cellular mRNA Export Factor REF by Herpes Viral Proteins HSV-1 ICP27 and HVS ORF57” (PLoS Pathogens, 2011).

B1: unnamed (parent)
chain 1: MATDIDMLIDLGLDLSDSDLDEDPPEPAESRRDDLESDSSGECSSSDEDMEDPHGEDGPEPILDAARPAVRPSRPEDPGVPSTQTPRPTERQGPNDPQPAPHSVWSRLGARRPSCSPEQHGGKVARLQPPPTKAQPARGGRRGRRRGRGRGGPGAADGLSDPRRRAPRTNRNPGGPRPGAGWTDGPGAPHGEAWRGSEQPDPPGGQRTRGVRQAPPPLMTLAIAPPPADPRAPAPERKAPAADTIDATTRLVLRSISERAAVDRISESFGRSAQVMHDPFGGQPFPAANSPWAPVLAGQGGPFDAETRRVSWETLVAHGPSLYRTFAGNPRAASTAKAMRDCVLRQENFIEALASADETLAWCKMCIHHNLPLRPQDPIIGTTAAVLDNLATRLRPFLQCYLKARGLCGLDELCSRRRLADIKDIASFVFVILARLANRVERGVAEIDYATLGVGVGEKMHFYLPGACMAGLIEILDTHRQECSSRVCELTASHIVAPPYVHGKYFYCNSLF
chain 2: not shown

Variants of: B1
Assay: co-immunoprecipitation with densitometry of Western blot
Conditions: 293T cells transfected with GFP-tagged ICP27 and its mutants, IP with polyclonal GFP-specific antibody and Protein A agarose, 3 independent experiments, read off a plot, scale: relative binding normalised against GFP control

| Variant | response |
| --- | --- |
| chain 1 W105A | 0.32 |
| chain 1 W105A R107A L108A | 0.3 |
| chain 1 R107A L108A | 0.37 |
